# Experimental data taken from the domain aggregation screens of Martell et al. (2025).
# Assay: soluble fraction after stress (log2 fold change); higher = more stays soluble; pooled small domains, quantitative proteomics
# Conditions: stress: 75 degC
# 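Note: 20 min heating vs room temperature control held 20 min.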
sequence,measurement,value
HMGNYRVIKWGMQGDDVKLMQQMLINRGYVLSATGKYASRTLKAIMAFQEANGLKADGIVGKRTWNKLL,soluble fraction (log2),-2.78
HMGPAYEKIVANGQTFYRYNVKKGEGLMAVSRTFNVSVNDILKYNPSAASGLKDGQELLIPVIDDA,soluble fraction (log2),0.16
HMGPESKLTDAIKDYIYALYENLKGKSKFRNTIIEEVKKLYGVDISRESIRRVVNQKTDAETTENDDDEKA,soluble fraction (log2),0.432
HMGPKALLKIPGLQEVDAELLFKEGYKSISAVASADPEMLKAIPGVDEQKVTEWVTGAEQILSQQVNKGA,soluble fraction (log2),0.49
HMGPKPVDMSPIPEGQRNQVLHDWMYGRAANHPENWGQIRSDALERGLKSGLKADEIHAITGSVARALGLE,soluble fraction (log2),0.0169
HMGPNPLTEREQEILQLARTGEPVARLAKRLFLSPGTVRNHLSSAIGKLGAANRVEAAQFATERGW,soluble fraction (log2),0.0399
HMGPSLDAVREQIRDLIAEEDKSAPYSDLSLVAELEKRGIHISRRTIAKYRGEMGIPNSDQRRYF,soluble fraction (log2),-0.0939
HMGPSSIVVYVSGAVKTPGVYTLAPGSRVDDAVRAAGGLSERAESAGTNLAAQLSDGEHVHVAAAGE,soluble fraction (log2),0.0915
HMGPTGGLTPHIAIADKRASEAIEFYKQAFGAVEQVRMPAEDGVRLMHAHLLVNGSSLMMHDDFPEYSGQ,soluble fraction (log2),0.133
HMGPTLSPAEKRVFEVIPYDAILQDMVIRAAELPPGEVLAALTTLELKGLIKRLPGNLVMRRAR,soluble fraction (log2),-0.294
HMGPVALGVTDGATYFSSVTITFRRGTAVLDGEPIASGHTVYKSGAHSLTLTAGGKTRTIAFTMDT,soluble fraction (log2),-4.04
HMGPVPLASAADMEKFYSHLQQVLDEVDFKDRTGSGHLMARLRRLFQRTVLDQNEINILRGILMAVQGRR,soluble fraction (log2),-3.03
HMGQGAASAPLRELGVDPVSEKQMVLKDGRFGPYVTDGETNASLRKGDEVETITDERASELLQMRRDAGPS,soluble fraction (log2),-0.139
HMGQISDDGALKKLASEVLAANPQALADWKAGKQQAVSFLVGQAMKASKGRGDAALLGELIRAALD,soluble fraction (log2),0.2
HMGQKASEVEKIFVELQQQIIRGDLPPGYRLVESQIAAQFGVSRTPARLAIERLATAGLVAHETNRGATVH,soluble fraction (log2),-0.823
HMGQKNEDESLAKFYVHKKGNQYGPYSLIQIREYLKNNSFSLDDLASWDGQSWKKISQIPNLN,soluble fraction (log2),0.12
HMGQLTDKQILLFSGKLAYEPTFASKYSKAGESYDDFIIRISGDLTDPKKIKEYSPYLKELGF,soluble fraction (log2),-0.35
HMGQNYTIVKGDSLWKIAQKQYGDGSQWKKIYDANKDAIESAAKKYGKKSSDSGKWIYPGVSLII,soluble fraction (log2),-0.112
HMGQVEVPDVVGMTQERAITTLTEAKLVAQIQLTPADVAKGLVAAQSPRAGLKIGEGSFVTIEVSTGPVI,soluble fraction (log2),-0.306
HMGQVFEGTFNRKANGKNSVTPAEGGEPVFIAERNSLHAMNGDLVKVSLLAKKKHQPREAQVIEILKRSD,soluble fraction (log2),0.128
HMGQVPPLTRRETEIARLVSRGLSNKEIASTLVISPRTAEGHVEHILDKLGFSSRTQIATWLNEQTRNGK,soluble fraction (log2),-0.14
HMGRDWKTDLLNLATARGWGDVSYEVTGEGPDHARVYTAVAIVANQKTGTGVGPSKKEAERLAAEQAYRML,soluble fraction (log2),-0.099
HMGRELSDLELSLLRILDDKIPLLIDEAADRLQLPVAQVLSAVTIMEIDGLIRREGMRKYLRTVEVEETK,soluble fraction (log2),-1.63
HMGRFAETVEHIVAAQLARRQGIPTMEQFASFFNVSRATFQRRLGEEGETLEQIKQRVRLRLALELLHP,soluble fraction (log2),-3.1
HMGRGAAKGPLKELGLDPVTGRPLVVKDGKFGMYVTDGETNAGLRRGDLVEQLTLDRGMELLAERRARADQ,soluble fraction (log2),0.201
HMGRKIDDPSSMTGAEKAAVILLALGDEQRQLWEMMDDEEIRVVSQAMVNLGNVTSGAVEKLIMEFVGSMS,soluble fraction (log2),-0.37
HMGRKPATTIPLQVRNAVLDLYRTKYYGANFQHYTELLHEHEGIRISTSSVAKILEAEYILSPK,soluble fraction (log2),-1.58
HMGRKPVSPEIVERVLQLAKSNPDWGYEHIAGTMRYLGYNVSATTIRHILEANGIVPDPERRL,soluble fraction (log2),-0.464
HMGRMSLDEAKAVILPIGEHKGHTMGEVLAIKPGLIDFYASQKFNSGKYPYLKEAAQVILENQG,soluble fraction (log2),-0.0288
HMGRRERKKLQSRRAIIEAAVTEFKEKGFREASVADIMTRADLGLGTFYNYFQSKEDILMSLLS,soluble fraction (log2),-0.0594
HMGRRRAAPQEPLRQFPASPVTGQPIKLLLGQYGPYVTDGTTNASLPKGSSPDELTFEQATQLLAERALRG,soluble fraction (log2),0.0333
HMGRSARVQQAVHQAVRALLEENDGERSALSVPLVAERAGVNSSTIYRRWGDLPRLLAAVASN,soluble fraction (log2),-0.686
HMGRTVKGVNFVGLRDAGDPVDLAEIYSKEGADELVFLDITATHEKRKTLLDLVTRVAERINIPFTVGGGI,soluble fraction (log2),0.056
HMGSALLEAGADDAGQRLDQWLAAKLGPSISRSRVQALIKQGAVLVGGKPAGEAKRKLVAGDVVSVALPEP,soluble fraction (log2),0.0393
HMGSDLVAWAQTRIGRHPEEAADVIAALIDRHGEARVRAASRSLLARKFAHASDLRTAIDAAIG,soluble fraction (log2),-0.365
HMGSEEMLGALGVVERATDDGDWWIAVHGEHWRARSAQALVPGDRVRVARIDGLTLTVTPIA,soluble fraction (log2),-0.632
HMGSEGVKVEDTIGMSEAEATATLGKSGFVVNKTESHDPYIKAGNVITQSPAAGSKAPKGTTVTLTISLGP,soluble fraction (log2),0.404
HMGSEISYSEFLNRVEQGQVAAVRLDGEQIFITGPTGEAYQTIQPRNTDVLPDLREAGVEIQAAPQ,soluble fraction (log2),0.22
HMGSEYPSNPLASRWAKGVRLYHDEWGYGVIQAARGSEPDDYVITVRFESGAEKSFLPKFQAHSLMIVKD,soluble fraction (log2),-1.21
HMGSGQVTLPDLEGKSMKEVARILSQLGLHLSPDGHGLAFKQSPAAGTRVPVGSTIKVSFQPL,soluble fraction (log2),-0.164
HMGSKKAIPYVSGMSETEAQNELEEAGFKVTSSFQYDDSVESGKVISTTPEAGTKAEKGSTVTMLVSQGSN,soluble fraction (log2),0.0103
HMGSLVQTAMQAVTKHIHDNAMRVGDTLPGEGHFAETLGVSRAVMREAFGALAALKLIDVGNGRKPRVGR,soluble fraction (log2),-1.33
HMGSNATIKYAIKGDESLVQVAQKFNVTVSELRSWNNISAFENAKTGQELVINVPASKYETYFALANT,soluble fraction (log2),0.403
HMGSNLSFDLSQIIASRYQEKAAELGLTAPSLARTDLSPQEQATAEVVARAIIADYYDQRVAPFNDLIPQ,soluble fraction (log2),-0.631
HMGSNRPLALGDVVRIEGSKTLGTILELNAKDAVVALGALKTTLPLSRIHHASSQESQRLKRQATQAPLR,soluble fraction (log2),-0.203
HMGSPKLVIKNGQVDYQVLKKEKLDLLELTSLLRGQNTFSIREIEYAIIEPNGVITVIKKPEYQSVVKGDL,soluble fraction (log2),-0.43
HMGSPVTAVMNRVLNETERQIVTLHVISGFKHREIAELLEKPVGTVLWTYNNALGKMRKAMQRE,soluble fraction (log2),-1.67
HMGSRRFGDSNHAAKLTEEQVVEIRELAAAGATTKFLAEMVGMHPNYVGLILRGLSWPEAGGPLRVA,soluble fraction (log2),0.126
HMGSVDMVYGDHKINSEHMDLSFKNQTAVLYDKVNYKSSLSMLSADKILVNFLNKYTKIEMNDENNNILIQ,soluble fraction (log2),0.176
HMGSVNDNVQKLTSQIGETTETGDTITPEDVELYKKMVDPLSTMAQKLEAAEILKLKGIIGSNGIIV,soluble fraction (log2),-0.211
HMGSWEDALKNWVDSALASGQKGILEQAVPKFERIMIETALTHTAGRRRDASLLLGWGRNTLTRKIKELGI,soluble fraction (log2),-0.383
HMGTAESIRLFLSSGLIKGVGEALAGRIVDTFGTDTFDIIENHPELLAGVKGISHRLAMSIYESFSQHIGV,soluble fraction (log2),-1.13
HMGTDIGADKAAQTALADAGLSSSQVTGLRTKQDWDDGQLRYEVEFRAGGVEYDYELAADGTILKADRDT,soluble fraction (log2),0.17
HMGTEITEQRAKEIALENAKVAESDVTAMRVKKEMDDGVWRYDVEFYVQNKEYDYEINAMDGTILSVDYD,soluble fraction (log2),-0.00128
HMGTESFGARIRKIREARDWTPAALAEATGQTPEFVARVERDEVAPPVAFLLRLAAALGVDPSTF,soluble fraction (log2),-0.557
HMGTGADKNSWTIGDKVKHRKWGTGTVVKVTGAGEDAELDIAFKSEGIKRLLAAFAPIEKVK,soluble fraction (log2),-0.165
HMGTHDAGTRFFDNLDSLLQNRDATRADVLAVYLLAVSLGFRGKHRSVSSAPQIAHYRNQAYVTLFQ,soluble fraction (log2),0.737
HMGTIEQAFKGKAPGSAHLYDRARAVLAGGVTHDTRIHAPFPIMVQRALGARKWDVDGNEYIDY,soluble fraction (log2),0.064
HMGTMKGFVDGSSVHLRSGPSLSESIRAKVVKGQTLYITERRGDWYRATVHGGGEGWIHTSLVKLAG,soluble fraction (log2),-1.68
HMGTPLYLLLAAEVRDRIATEQLAPHTAVPSERELAELHGVSRMTARQALALLESEGLVYRNPPRGTFVAE,soluble fraction (log2),-1.15
HMGTQIKSPMPGTILDVRVNVGDTVKEGDILMILEAMKMENEILAPVSGKVAAIQVSKGTAVNSGDLLAVL,soluble fraction (log2),-0.0689
HMGTRHPLPYAYARANTVLLEDDGDRLVLWAPENVSLTALGEVLRRFDVDALERESSSTLANRIAVAYAG,soluble fraction (log2),-0.774
HMGTTLTKIPGIGENRARLLLRHFGSLRAVREADADALAAVKGMTRPAAEAIVRYFEQQDAEGRRD,soluble fraction (log2),0.282
HMGTTTPPATRKGKVTSSFLNVRSGPSTANAKVAELKQNAVVTIYETSSNGWHRIGVNQWVIGTNIQE,soluble fraction (log2),-1.2
HMGTVSSGSSSTDTPFSLGEIVRHKVFGEGVVLSIEGQGDASRIQINFNTAGTKWLVTAYADLEK,soluble fraction (log2),-1.09
HMGTVVKRNALVHAWTEFNGGRASTKLLALGPGKVGEWIELENPQSGRKLRGEVQVDGSVRLG,soluble fraction (log2),0.0593
HMGTWKKIGTMTATVNDLYVRETPNGYIMGFINKGTVVEVDGKTTGKWTHAKVEGIGVGWIWTGYLDK,soluble fraction (log2),-3.17
HMGTYYTEIIAQLKKEIANGTWKLGERLPGELALAKQFNVSRSSIREALKALAYAGIVESKPGRGTFLLHV,soluble fraction (log2),-1.5
HMGVAAEDPDEAEKGAHSLKSSAANVGAEVVRGLAGEIESAASSGDVEAVRTILPGLEDAYSQAITDLET,soluble fraction (log2),0.266
